Results as given in publication PMC3715429.

Molecular target: EphrinA2 (EphA2) receptor tyrosine kinase (human (endogenous in HFF)) (UniProt P29317)
Assay: co-IP; lysates of c-Cbl siRNA-transfected HFF cells infected with KSHV for 5 min; IP with anti-EphA2 antibody, Western blot for clathrin; compared with control siRNA cells

- fold reduction of the co-IP in c-Cbl siRNA cells against control siRNA cells: 8 fold
Substance: clathrin heavy chain (from UniProt Q00610 1-1675) (natural protein)
